These results are taken from US20260098102A1 (NATIONAL UNIVERSITY CORPORATION KOBE UNIVERSITY, published 2026).

One experiment has as its target T1, mouse SIRPA BALB/c (mouse (BALB/c), UniProt P97797 35-513).
T1 construct: FLAG-tagged (pFLAG V5-DEST), on 293α cells
T1 chain: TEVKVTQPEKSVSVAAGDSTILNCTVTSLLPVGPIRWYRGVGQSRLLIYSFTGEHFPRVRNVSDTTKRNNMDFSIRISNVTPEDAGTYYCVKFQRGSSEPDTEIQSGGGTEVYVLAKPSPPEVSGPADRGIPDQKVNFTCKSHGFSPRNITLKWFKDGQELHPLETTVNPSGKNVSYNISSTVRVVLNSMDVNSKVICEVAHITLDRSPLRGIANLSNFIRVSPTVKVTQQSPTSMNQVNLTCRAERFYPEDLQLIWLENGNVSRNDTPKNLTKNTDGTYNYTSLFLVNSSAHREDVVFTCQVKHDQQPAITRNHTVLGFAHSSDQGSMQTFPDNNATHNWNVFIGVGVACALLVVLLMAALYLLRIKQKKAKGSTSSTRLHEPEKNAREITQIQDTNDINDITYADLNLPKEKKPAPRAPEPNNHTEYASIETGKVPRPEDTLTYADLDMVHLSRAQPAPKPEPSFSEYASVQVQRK
Nature of the experiment: cell-based ELISA, transfected 293α cells. How it is done:
(§1) After the culture supernatant of 293α cells into which the pFLAG V5-DEST-monkey SIRPA or pFLAG V5-DEST-mouse SIRPA expression vector was introduced and the pFLAG V5-DEST-introduced 293α cells prepared in Example 1)-5-2 was removed, binding to monkey or mouse SIRPA was evaluated in the same manner as for the binding activity of human SIRPA.
Background: An ELISA detects its analyte on a solid surface through an enzyme-linked reagent.

The target of a further experiment is T2, mouse SIRPA_C57BL/6 (mouse (C57BL/6), UniProt P97797 32-513).
T2 construct: FLAG-tagged (pFLAG V5-DEST), on 293α cells
T2 sequence: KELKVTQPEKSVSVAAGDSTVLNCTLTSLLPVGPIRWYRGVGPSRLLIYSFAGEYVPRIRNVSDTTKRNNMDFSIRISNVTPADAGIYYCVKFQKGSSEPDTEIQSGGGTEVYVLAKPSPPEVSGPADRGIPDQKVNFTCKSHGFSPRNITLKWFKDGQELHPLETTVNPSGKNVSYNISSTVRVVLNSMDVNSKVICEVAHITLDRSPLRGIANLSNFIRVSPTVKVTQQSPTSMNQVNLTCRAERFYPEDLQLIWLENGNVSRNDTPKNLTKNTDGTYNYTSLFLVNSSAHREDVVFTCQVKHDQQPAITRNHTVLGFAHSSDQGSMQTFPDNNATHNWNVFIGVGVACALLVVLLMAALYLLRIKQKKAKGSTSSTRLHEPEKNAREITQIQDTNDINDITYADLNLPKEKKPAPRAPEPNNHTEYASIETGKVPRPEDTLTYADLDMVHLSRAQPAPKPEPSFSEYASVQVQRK
Nature of the experiment: cell-based ELISA, transfected 293α cells. How it is done: as §1

For another experiment, the target named is T3, mouse SIRPA_NOD (mouse (NOD), UniProt P97797 32-513).
T3 construct: FLAG-tagged (pFLAG V5-DEST), on 293α cells; also called NOD SCID
T3 chain: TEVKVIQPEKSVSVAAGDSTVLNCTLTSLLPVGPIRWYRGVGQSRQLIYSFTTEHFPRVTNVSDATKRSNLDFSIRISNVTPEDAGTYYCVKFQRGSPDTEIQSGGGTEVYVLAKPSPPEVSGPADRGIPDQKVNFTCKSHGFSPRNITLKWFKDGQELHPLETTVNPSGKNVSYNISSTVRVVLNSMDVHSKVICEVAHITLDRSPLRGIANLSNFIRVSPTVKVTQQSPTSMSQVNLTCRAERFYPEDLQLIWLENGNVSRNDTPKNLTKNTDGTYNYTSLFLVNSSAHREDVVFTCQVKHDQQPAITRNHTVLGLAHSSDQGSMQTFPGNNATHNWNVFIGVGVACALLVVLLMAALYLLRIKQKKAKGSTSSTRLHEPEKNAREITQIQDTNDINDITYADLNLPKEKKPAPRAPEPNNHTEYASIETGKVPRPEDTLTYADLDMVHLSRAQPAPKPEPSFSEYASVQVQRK
Put plainly: cell-based ELISA, transfected 293α cells. How it is done: as §1

The next experiment concerns the target T4, mouse SIRPA_129 (mouse (129), UniProt P97797 32-513).
T4 construct: FLAG-tagged (pFLAG V5-DEST), on 293α cells; also called 129sv
T4 chain: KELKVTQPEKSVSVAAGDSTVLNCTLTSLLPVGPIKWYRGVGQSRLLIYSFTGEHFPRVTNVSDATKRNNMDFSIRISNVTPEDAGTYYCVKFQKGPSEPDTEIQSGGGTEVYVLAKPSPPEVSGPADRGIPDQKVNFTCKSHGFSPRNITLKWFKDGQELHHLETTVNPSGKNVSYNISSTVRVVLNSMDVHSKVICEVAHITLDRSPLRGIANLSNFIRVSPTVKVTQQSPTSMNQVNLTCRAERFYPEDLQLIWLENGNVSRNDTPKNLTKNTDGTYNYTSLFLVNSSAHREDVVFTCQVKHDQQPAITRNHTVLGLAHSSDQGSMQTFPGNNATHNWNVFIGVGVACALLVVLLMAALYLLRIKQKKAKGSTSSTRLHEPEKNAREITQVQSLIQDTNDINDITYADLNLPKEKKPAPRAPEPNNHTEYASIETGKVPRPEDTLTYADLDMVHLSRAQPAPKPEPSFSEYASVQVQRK
Put plainly: cell-based ELISA, transfected 293α cells. The procedure:
as §1

A further experiment deals with T5, human SIRPA_V8 (human, UniProt P78324 31-504).
T5 construct: FLAG-tagged (pFLAG V5-DEST), on 293α cells; also called human SIRPA Variant 8
Put plainly: cell-based ELISA, transfected 293α cells, 10,000 ng/mL, normalized to FLAG. The procedure:
(§2) After the culture supernatant of 293α cells into which the vector expressing 10 different variant proteins prepared in Example 2)-1-1 was introduced was removed, 50 μL per well of a purified rat anti-human SIRPA antibody diluted with 5% FBS-containing PBS to a final concentration of 10,000 ng/ml was added to each of pFLAG V5-DEST-SIRPA_V1-V10 and pFLAG V5-DEST-introduced 293α cells, and the mixture was allowed to stand at 4° C. for one hour. Further, 50 μL per well of an anti-FLAG M2 antibody (SIGMA) diluted with 5% FBS-containing PBS to a final concentration of 10,000 ng/mL was added to a well for detecting expression of each SIRPA variant, and the mixture was allowed to stand at 4° C. for one hour. Thereafter, binding to 10 different human SIRPA variants was evaluated in the same manner as in the evaluation of the binding activity of the human SIRPA described in 1)-6-2. Binding of the rat anti-human SIRPA antibodies to each variant was standardized by expression of the FLAG tag.

The target of a further experiment is T6, human SIRPA_V4 (human, UniProt P78324 31-504).
T6 construct: FLAG-tagged (pFLAG V5-DEST), on 293α cells; also called human SIRPA Variant 4
T6 chain: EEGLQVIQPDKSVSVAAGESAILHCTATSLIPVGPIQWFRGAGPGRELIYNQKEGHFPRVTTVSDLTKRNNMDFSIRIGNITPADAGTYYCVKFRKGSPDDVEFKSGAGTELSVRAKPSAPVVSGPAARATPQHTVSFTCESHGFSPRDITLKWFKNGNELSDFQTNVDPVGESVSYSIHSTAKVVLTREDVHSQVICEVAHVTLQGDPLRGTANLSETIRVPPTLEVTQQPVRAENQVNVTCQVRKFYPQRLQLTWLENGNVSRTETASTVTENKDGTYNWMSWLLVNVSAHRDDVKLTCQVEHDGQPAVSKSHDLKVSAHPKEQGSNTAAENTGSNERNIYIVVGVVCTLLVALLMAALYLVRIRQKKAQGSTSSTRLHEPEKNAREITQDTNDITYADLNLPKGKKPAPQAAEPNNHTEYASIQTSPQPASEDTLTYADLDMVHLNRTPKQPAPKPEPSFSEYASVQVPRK
The description is as above. How it is done:
as §2

B1: rat anti-human SIRPA monoclonal antibody D13 (antibody, V domains shown)
VH: EVQLVESGGGLVQPGRSLKLSCLASGFTFSDYGMIWVRQAPGKGLEWVASISSSSSYIYYADTVKGRFTISRENAKNTLFLHMTSLRSEDTALYYCARRYYGFNYPFDYWGQGVMVTVSS
VL: DTVLTQSPALAVSLGQRVTISCGASKSVRTYMHWYQQKSGQQPKLLIYSASNLEAGVPSRFSGSGSGTDFTLTIDPVEADDIANYYCQQSNEPPYTFGAGTKLELK
notes: Rat IgG1/kappa purified from hybridoma
For the molecule B1, the binding result with mouse SIRPA BALB/c, in the experiment with mouse SIRPA_C57BL/6, in the experiment with mouse SIRPA_NOD and in the experiment with mouse SIRPA_129 was “no binding” throughout.

B2: rat anti-human SIRPA monoclonal antibody F44 (antibody, V domains shown)
VH: EVQLVESGGGLVQPGRSLKLSCAASGFTFSNYYMAWVRQAPTKGLEWVTYITTGGGSTYFRDSVKGRFTISRDNAESTLYLQMDSLRSEDTATYYCTAANYGGSYFDYWGQGVMVTVSS
VL: DVQMTQSPSNLAASPGESVSINCKASKSISKYLAWYQQKPGKANKLLIYSGSTLQSGTPSRFSGSGSGTDFTLTIRNLEPEDFGLYYCQQHNEYPPTFGAGTKLELK
notes: Rat IgG2a/kappa purified from hybridoma
With B2, the binding result with human SIRPA_V8 is recorded as “binds”; with human SIRPA_V4 it was “binds”; in the experiment with mouse SIRPA BALB/c it was “no binding”; in the experiment with mouse SIRPA_C57BL/6, “no binding”; with mouse SIRPA_NOD, “no binding”; with mouse SIRPA_129, “no binding”.

B3: rat anti-human SIRPA monoclonal antibody F63 (antibody, V domains shown)
VH: QVQLKESGPGLVQPSETLSLTCTVSGFSLASYSLSWVRQPSGKGPEWMGRMYYDGDTAYNSALKSRLSISRDTSKNQVFLKMNSLQTDDTGTYYCTRDRSMFGTDYPHWYFDFWGPGTMVTVSS
VL: QFTLTQPKSVSGALRSTITIPCERSSGDIGDSYVSWYQRHLGRPPINVIYADDQRPSEVSDRFSGSIDSSSNSASLTITNLQMDDEADYFCQSYDSKIDIFGGGTKLTVL
notes: Rat IgG2a/lambda purified from hybridoma
On to B3, for which the binding result in the experiment with human SIRPA_V8 is “binds”; in the experiment with human SIRPA_V4, “binds”; in the experiment with mouse SIRPA BALB/c, “no binding”; with mouse SIRPA_C57BL/6, “no binding”; with mouse SIRPA_NOD, “no binding”; with mouse SIRPA_129, “no binding”.
